Source: patent US20220119450A1 (UNIVERSITY OF TARTU, published 2022)
No end group written: not given here.

T1: recombinant His-tagged tenascin-C C domain (TNC-C)
T1 construct: 112 amino acids, expressed in E. coli from pET28a+ with N-terminal His-tag
T1 chain: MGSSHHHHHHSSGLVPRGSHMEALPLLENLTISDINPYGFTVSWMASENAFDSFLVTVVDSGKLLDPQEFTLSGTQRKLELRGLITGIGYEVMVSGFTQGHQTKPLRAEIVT

T2: recombinant His-tagged Neuropilin-1 b1b2 domain (UniProt O14786 273-586, limits assumed)
T2 construct: domain: b1b2; also called NRP-1; NRP1
T2 sequence (looked up): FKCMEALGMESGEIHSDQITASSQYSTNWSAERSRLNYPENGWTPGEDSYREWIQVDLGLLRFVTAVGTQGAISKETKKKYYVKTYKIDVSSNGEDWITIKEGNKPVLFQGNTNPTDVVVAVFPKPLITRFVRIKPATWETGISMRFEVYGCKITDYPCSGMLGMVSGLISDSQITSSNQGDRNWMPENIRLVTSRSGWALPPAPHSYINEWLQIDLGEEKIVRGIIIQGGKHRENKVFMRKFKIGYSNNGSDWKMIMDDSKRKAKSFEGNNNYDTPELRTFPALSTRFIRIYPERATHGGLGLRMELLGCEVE


What was measured:
[1] = target: T1, recombinant His-tagged tenascin-C C …; assay: binding specificity, T7 peptide phage
Description: (§1) To identify bispecific peptides that interact with both TNC-C and FN-EDB, cross screens were performed on both targets. During the first round of selection, microtiter plates coated with 20 μg/ml recombinant purified TNC-C were blocked with PBS containing 1% bovine serum albumin (BSA), followed by incubation with 5×10⁸ pfu of phages in PBS at 4° C. overnight, by washes to remove background, and by phage rescue and amplification in BLT5403 strain of E. coli (Novagen, EMD Biosciences, MA, USA) (Teesalu et al., Methods Enzymol. 503:35-56 (2012)). The following rounds of biopanning were carried on Ni-NTA Magnetic Agarose Beads (QIAGEN, Hilden, Germany) coated with hexahistidine-tagged FN-EDB (3 μg/μl beads) at room temperature. After 5 rounds of selection, a set of random clones was sequenced, and individual peptide-phage clones and control (G7 peptide-displaying or insertless) phages were incubated with FN-EDB and TNC-C-coated magnetic beads. RPARPAR phage (SEQ ID NO:5) and His-tagged NRP-1 b1b2 domain were used as positive control (Teesalu et al., Proc. Natl. Acad. Sci. U.S.A 106:16157-62 (2009)). To address the specificity of the peptide phage binding to the FN-EDB and TNC-C, the protein-coated beads were pre-incubated with 20 μg/ml blocking rabbit polyclonal antibodies.
(§2) Immobilized FAM-PL1 was probed with recombinant His-tagged EDB and TNC-C (or control BSA), followed by sequential incubation with rabbit anti-His-tag primary antibody, secondary goat anti-rabbit HRP antibody and a chromogenic peroxidase reaction.

[2] = target: T3, recombinant His-tagged fibronectin extra domain B (FN-EDB); assay: binding specificity, T7 peptide phage
T3 construct: 112 amino acids, expressed in E. coli from pET28a+ with N-terminal His-tag; also called fibronectin EDB-domain
Description: as §1, §2

[3] = target: T2, recombinant His-tagged Neuropilin-1 …; assay: T7 phage binding to protein-coated magnetic beads
[4] = target: T1, recombinant His-tagged tenascin-C C …; assay: T7 phage binding to recombinant protein
[5] = target: T3, recombinant His-tagged fibronectin …; assay: T7 phage binding to recombinant protein
[6] = target: T2, recombinant His-tagged Neuropilin-1 …; assay: T7 phage binding to recombinant NRP-1 b1b2

Binder | binding result [1] | binding result [2] | binding result [3] | binding result [4] | binding result [5] | fold more than heptaglycine control phage [6] [fold]
PPRRGLIKLKTS (not fully specified (N-terminus); also: displayed on T7 phage capsid protein, also called PL1 phage) [PL1 peptide displayed on T7 phage (PPRRGLIKLKTS)] | binds | binds | no binding |  |  | 
AGRGRLVR (also: displayed on T7 phage, fusion site not given here, also called PL3 phage; PL-3 phage) [PL3 peptide displayed on T7 phage (AGRGRLVR)] |  |  |  | binds | no binding | ~200
